# In paper PMC7618261 (Journal of molecular biology, 2019):
# T1: SurA WT (E. coli, UniProt P0ABZ6 21-428)
# T1 sequence (looked up): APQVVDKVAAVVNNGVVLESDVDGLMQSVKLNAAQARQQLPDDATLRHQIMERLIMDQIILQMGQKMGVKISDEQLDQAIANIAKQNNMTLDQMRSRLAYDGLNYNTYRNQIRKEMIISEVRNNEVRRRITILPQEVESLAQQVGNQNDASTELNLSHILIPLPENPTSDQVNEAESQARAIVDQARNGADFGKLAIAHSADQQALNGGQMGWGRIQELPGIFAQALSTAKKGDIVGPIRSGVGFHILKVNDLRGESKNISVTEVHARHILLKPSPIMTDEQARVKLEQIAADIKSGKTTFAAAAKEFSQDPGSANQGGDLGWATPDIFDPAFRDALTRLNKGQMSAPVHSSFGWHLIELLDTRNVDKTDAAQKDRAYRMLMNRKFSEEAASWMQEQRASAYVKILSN
# B1: Alexa Fluor 488-labeled tOmpA (domain or fragment)
# chain: APKDNTWYTGAKLGWSQYHDTGFINNNGPTHENQLGAGAFGGYQVNPYVGFEMGYDWLGRMPYKGSVENGAYKAQGVQLTAKLGYPITDDLDIYTRLGGMVWRADTKSNVYGKNHDTGVSPVFAGGVEYAITPEIATRLEYQWTNNIGDAHTIGTRPDNGMLSLGVSYRFG
# modifications: Alexa Fluor 488 C5 maleimide on the N-terminal Cys
# How the values were obtained:
# [1] = biological target: Alexa Fluor 488-labeled OmpT (E. coli) (UniProt P09169); assay: MST
# [2] = biological target: T1, SurA WT; assay: MST
Molecule,Kd [1] [µM],Kd [2] [µM]
SurA WT (from UniProt P0ABZ6 21-428) (natural protein),9.3,–
B1,–,1.8 ± 0.1
